{
  "source": "patent US20180163180A1",
  "about": "“METHOD OF ENHANCING SOMATIC CELL REPROGRAMMING WITH THE ACETYLLYSINE READER BRD3R” (THE UAB RESEARCH FOUNDATION, INC ., priority 2015, published 2018)",
  "molecules": {"B1": {"name": "BRD3R shRNA: shRNA that specifically targets BRD3R (SEQ ID NO: 42 and 43) (nucleic acid)", "chain 1": "CTAGGAACCTCTGTAATTGTTTCCTGGCTCGAGCCAGGAAACAATTACAGAGGTTCTTTTTT", "chain 2": "AAAAAAGAACCTCTGTAATTGTTTCCTGGCTCGAGCCAGGAAACAATTACAGAGGTTC"}, "B2": {"name": "LIN28: established reprogramming factor (protein, UniProt Q9H9Z2 2-209, looked up)", "Protein lin-28 homolog A": "GSVSNQQFAGGCAKAAEEAPEEAPEDAARAADEPQLLHGAGICKWFNVRMGFGFLSMTARAGVALDPPVDVFVHQSKLHMEGFRSLKEGEAVEFTFKKSAKGLESIRVTGPGGVFCIGSERRPKGKSMQKRRSKGDRCYNCGGLDHHAKECKLPPQPKKCHFCQSISHMVASCPLKAQQGPSAQGKPTYFREEEEEIHSPTLLPEAQN"}},
  "key": {"[1]": {"test_system": "BJ cells", "assay": "Reprogramming of human fibroblasts scored by TRA-1-60+ colonies/clusters", "format": "cell-based", "conditions": "for reprogramming activity (TRA-1-60+ colonies): used with 3F in BJ cells, compared to OSK-GFP control", "method": "Briefly (FIG. 1A), 2×10^4 of BJ cells were seeded in each well of a 24-well plates. The second day, fibroblasts were transduced with OCT4 (10 MOI), SOX2 (5 MOI), KLF4 (5 MOI) along with 250 μl of individual kinase viral supernatant freshly packaged in one well of a 6-well plate. Twenty-two cDNAs were evaluated in one 24-well plate. One well is OSK control, and one well of cells is transduced with OSK plus 250 μl of GFP viral supernatant as a second control. Virus was removed next day with fresh fibroblast medium. Forty-eight hours after transduction, fibroblasts were transferred from one well into a 60-mm dish for continued reprogramming. The next day of re-seeding, fibroblast medium was replaced with E7 medium (E8 minus TGF beta) plus 100 μM of sodium butyrate. From day 18 of reprogramming on, E8 media was used. On day 25 of reprogramming, reprogramming dishes were stained for ALP or TRA-1-60 markers.\n• Concentration of virus: The reprogramming viruses (OCT4, SOX2, KLF4, MYC and BET members) were concentrated before use except for library viruses. The lentiviral supernatant was centrifuged at 3,000×g for 10 mins at 4° C. to remove the cell debris. Thirty ml of the viral supernatant was then transferred into each 50-ml tube. 7 ml of 50% PEG-6000 stock solution (final concentration of 8.5%) and 4.1 ml of 4 M NaCl stock solution was added to each tube (final concentration of 0.4 M). The virus mixture was stored at 4° C. for 3-5 h.\n• Cell culture and reprogramming: Human fibroblast cells (BJ ATCC CRL-2522®) were cultured in fibroblast medium: DMEM, 10% heat-inactivated FBS, 0.1 mM 2-mercaptoethanol, 100 U/ml penicillin, 100 μg/ml streptomycin, 0.1 mM MEM NEAA and 4 ng/ml human bFGF. For reprogramming, seed BJ cells into 24-well plate at 2×10^4 cells/well. Twenty-four hours after plating, pre-mix the OSK (OCT4, 10 MOI; SOX2, 5 MOI and KLF4, 5 MOI) viruses (shown in FIGS. 6B-6D, SEQ ID NO: 58-60, respectively), and add the OSK virus along with 250 μl supernatant of individual kinase virus into respective wells. Incubate overnight. Next morning, remove viruses by replacing virus-containing medium with fresh fibroblast medium. Twenty-four hours after transduction, the cells were re-seeded from one well into one matrigel-coated 60-mm dish. Next day, replace fibroblast medium with reprogramming media (E7 plus sodium butyrate at 100 μM). On 18 day, start to use E8 media. On day 25 of reprogramming, stain the reprogramming cells for alkaline phosphatase or TRA-1-60."}, "[2]": {"biological_target": "T1, tetra-acetylated H4 (H4K5/8/12/16Ac) (Homo sapiens, UniProt P62805)", "T1 construct": "Histone tails used for peptide pull-down experiments; Peg-biotin (chemical label); incubated with lysate of human BJ fibroblasts transduced with BRD3R or BRD3 virus", "assay": "Histone peptide pull-down assay", "format": "binding", "conditions": "lysates of human fibroblasts overexpressing BRD3R or BRD3; western with BRD3 antibody", "method": "• Histone peptide pull-down assay: H3 or H4 histone tails with 8 different acetylation modifications were evaluated for binding with BRD3R and BRD3. One unmodified tail for each histone was used for negative control.\nHuman BJ fibroblasts were transduced with BRD3 or BRD3R viruses. Three days post-transduction, cells were lysed by non-denaturing lysis buffer (20 mM HEPES pH 7.9, 150 mM NaCl, 1 mM MgCl2, 0.5% NP40, 10 mM NaF, 0.2 mM NaVO4, 10 mM β-glycerol phosphate, 5% glycerol, 1 mM DTT, 1 mM PMSF and protease inhibitors). Twenty μg of the cell lysates were incubated with 1 μg biotinylated peptide in 300 μl binding buffer (50 mM Tris pH 7.5, 150 mM NaCl, 0.1% NP-40, 1 mM PMSF and protease inhibitors) at 4° C. for overnight. The next day, 30 μl of Dynabeads M-280 Streptavidin was added into each sample (Invitrogen, 11205D). The mixture of proteins, antibodies and beads were further incubated with gentle rotation at 4° C. for 1 h. The beads were then washed with binding buffer three times. The bound proteins were resuspended in 60 μl of 2× SDS sample buffer. The pull-down proteins were analyzed by western using antibody of BRD3 (Proteintech, 11859-1-AP). Two micrograms of cell lysates were loaded as input control. For semi-quantification, band density was normalized to the corresponding inputs."}, "[3]": {"test_system": "BJ cells", "assay": "Sensitivity test of the optimized small-vessel reprogramming protocol (ALP staining)", "format": "cell-based, human", "conditions": "n=3", "from_the_text": "• Optimization of screening protocol: Several strategies to make the screening of cDNA library more efficient and sensitive were used. First, the lentiviral reprogramming vector was modified so that it is more efficient and consistent in reprogramming human cells. This was achieved by using EF1a promoter and co-expression of GFP, which makes titration of viral vectors easier and faster. Second, the efficient Gateway cloning was used to transfer the human kinase library onto the modified lentiviral destination vector. 24 randomly selected of the 89 cloned cDNAs were sequenced, and verified precise cloning for all of the 24 genes. Third, a protocol to simultaneously package 24×n individual transgene viruses in individual wells of 6-well plates was established. The kinase virus was not concentrated and the supernatant directly used in screening protocol. Almost 100% of transduction of BJ cells in one well of a 24-well plate with 250 μl of supernatant using GFP reporter construct on the same destination vector (FIGS. 6J and 6K) was achieved. […] To test the sensitivity of the new screening protocols, the reprogramming activities of two established reprogramming factors: NANOG and LIN28, were evaluated. […]\nBriefly (FIG. 1A), 2×10^4 of BJ cells were seeded in each well of a 24-well plates. […] Twenty-two cDNAs were evaluated in one 24-well plate. […]"}, "[4]": {"test_system": "BRD3R mRNA", "assay": "Knockdown of BRD3R mRNA by shRNA (RT-qPCR)", "format": "cell-based, human", "method": "• shRNA cloning: BRD3R shRNAs at XbaI and HpaI sites on the shRNA vector PLVH-U6-EF1a-AcGFP were cloned. Correct cloning was verified by sequencing. An shRNA targeting the firefly luciferase was used as a control.\n• RT-qPCR: Cells were harvested with Trizol reagent and stored at −80° C. until use. Total RNA was extracted using the Direct-zol™ Miniprep kit (R2052). cDNA was prepared using the M-MLV reverse transcriptase (cat #28025-013) per manufacturer's instruction. Quantitative PCR was performed on ViiA 7 Real-time PCR system (Applied Biosystem) using SYBR-Green Master PCR mix (Clontech, Cat #639676) in triplicates. All quantifications were normalized to an endogenous GAPDH control."}},
  "data": [
    {"molecule": "BRD2: BET subfamily bromodomain protein", "values": [
      {"measurement": "reprogramming activity (TRA-1-60+ colonies)", "setting": "[1]", "result": "none did"}
    ]},
    {"molecule": "BRD3: canonical BRD3 (NP_031397; 726 aa, SEQ ID NO: 45), BET bromodomain protein", "values": [
      {"measurement": "reprogramming activity (TRA-1-60+ colonies)", "setting": "[1]", "result": "none did"},
      {"measurement": "binding to H4K5/8/12/16Ac peptide", "setting": "[2]", "result": "weaker than BRD3R"}
    ]},
    {"molecule": "NANOG: established reprogramming factor [reference compound]", "values": [
      {"measurement": "increase in reprogramming efficiency", "setting": "[3]", "result": 5.1, "unit": "×"}
    ]},
    {"molecule": "B1", "values": [
      {"measurement": "impairment of reprogramming", "setting": "[1]; BRD3R knockdown by shRNA, TRA-1-60 staining", "result": 58, "unit": "%"},
      {"measurement": "knockdown of BRD3R mRNA", "setting": "[4]", "result": "significant knockdown"}
    ]},
    {"molecule": "B2", "values": [
      {"measurement": "increase in reprogramming efficiency", "setting": "[3]", "result": 2.4, "unit": "×"}
    ]}
  ]
}
